# Data reported in PMC5374410, “Identification of a Potent Allosteric Inhibitor of Human Protein Kinase CK2 by Bacterial Surface Display Library Screening” (Pharmaceuticals, 2017).
# Target: CK2β^1–193-pAzF coupled to fluorescein (human) (UniProt P67870)
# Test: MST; B2 titrated (7.6 nM to 125 or 250 µM) to 100 nM fluorophore-labelled CK2α-DBCO-Sulfo-Cy5 or CK2β^1-193-Flu; 50 mM Tris/HCl pH 7.5, 25 mM NaCl, 20 mM MgCl2, Tween-20, DMSO; 37 °C, MST power 60%; Monolith NT.115; three independent measurements
binder,measurement,value
DCRGLIVMIKLH [peptide B2 (free synthetic peptide)],Kd,> 100 µM
